# Measured values: patent US20100135997A1
# Biological target: Class I pMHC on target cells (Mel 624)
# Assay: cell-based or functional assay
row,Binder,"IC50 of inhibition of T cell activation (IFN-γ ELISPOT; Mel 624 target cells, MART-1 specific T cell clone) [pM]"
1,c138 Fc dimer (polypeptide homodimer Fc fusion) (Fc fusion) HLPKPTLWAEPGSVITMDQPVTLRCQGGQETQQYRLYREKKTAPWITRIPQELVKKGQFPIPSITWEHAGRYRCYYGSDTRQWSASSDPLELVVTGVYIKPTLSAQPSPVVNSGGNVTLQCDSPFQADGFILCKEGEDDHPQCLNSQPHARGSSRAIFSVGPVSPSRRWRYRCYAYDSNSPYEWSLPSDLLELDVDGRMDPSRSVECPPCPAPPVAGPSVFLFPPKPKDTLMISRTPEVTCVVVDVSHEDPEVKFNWYVDGVEVHNAKTKPREEQYNSTYRVVSVLTVLHQDWLNGKEYKCKVSNKGLPSSIEKTISKAKGQPREPQVYTLPPSREEMTKNQVSLTCLVKGFYPSDIAVEWESNGQPENNYKTTPPVLDSDGSFFLYSKLTVDKSRWQQGNVFSCSVMHEGLHNHYTQKSLSLSPGK,400
2,c132 Fc dimer (ILT Fc fusion homodimer) (Fc fusion) HLPKPTLWAEPGSVITMDQPVTLRCQGGQETQEYRLYREKKTAPWITRIPQELVKKGQFPIPSITWEHAGRYRCYYGSDTSQWSASSDPLELVVTGVYIKPTLSAQPSPVVNSGGNVTLQCDSPFQADGFILCKEGEDEHPQCLNSQPHARGSSRAIFSVGPVSPSRRWWYRCYAYMSWSPYEWSLPSDLLELDVDGRMDPSRSVECPPCPAPPVAGPSVFLFPPKPKDTLMISRTPEVTCVVVDVSHEDPEVKFNWYVDGVEVHNAKTKPREEQYNSTYRVVSVLTVLHQDWLNGKEYKCKVSNKGLPSSIEKTISKAKGQPREPQVYTLPPSREEMTKNQVSLTCLVKGFYPSDIAVEWESNGQPENNYKTTPPVLDSDGSFFLYSKLTVDKSRWQQGNVFSCSVMHEGLHNHYTQKSLSLSPGK,450
3,c64 Fc dimer (ILT Fc fusion homodimer) (Fc fusion) HLPKPTLWAEPGSVITMDQPVTLRCQGGQETQQYRLYREKKTAPWITRIPQELVKKGQFPIPSITWEHAGRYRCYYGSDTRQWSASSDPLELVVTGVYIKPTLSAQPSPVVNSGGNVTLQCDSQVAFDGFILCKEGEDDHPQCLNSQPHARGSSRAIFSVGPVSPSRRWRYRCYAYDSNSPYEWSLPSDLLELDVDGRMDPSRSVECPPCPAPPVAGPSVFLFPPKPKDTLMISRTPEVTCVVVDVSHEDPEVKFNWYVDGVEVHNAKTKPREEQYNSTYRVVSVLTVLHQDWLNGKEYKCKVSNKGLPSSIEKTISKAKGQPREPQVYTLPPSREEMTKNQVSLTCLVKGFYPSDIAVEWESNGQPENNYKTTPPVLDSDGSFFLYSKLTVDKSRWQQGNVFSCSVMHEGLHNHYTQKSLSLSPGK,2300
